Results reported in patent US20210388087A1 (Chugai, published 2021).

Columns and labels:
[1] = molecular target: human CD137 on HDLM-2 cells (human, UniProt Q07011 24-255); test: cell-based or functional assay
Human CD137 ECD = molecular target: T1, Human CD137 ECD (human); test: SPR, vs parent H183/L072
T1 construct: also called 4-1BB
T1 sequence (chain, as listed by the source limits assumed): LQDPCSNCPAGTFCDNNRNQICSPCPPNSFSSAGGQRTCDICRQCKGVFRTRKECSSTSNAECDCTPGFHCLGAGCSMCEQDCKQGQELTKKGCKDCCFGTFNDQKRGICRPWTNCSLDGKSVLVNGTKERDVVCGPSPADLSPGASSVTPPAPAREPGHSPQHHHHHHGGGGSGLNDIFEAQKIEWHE

Sequence of human CD137 on HDLM-2 cells (Q07011 24-255): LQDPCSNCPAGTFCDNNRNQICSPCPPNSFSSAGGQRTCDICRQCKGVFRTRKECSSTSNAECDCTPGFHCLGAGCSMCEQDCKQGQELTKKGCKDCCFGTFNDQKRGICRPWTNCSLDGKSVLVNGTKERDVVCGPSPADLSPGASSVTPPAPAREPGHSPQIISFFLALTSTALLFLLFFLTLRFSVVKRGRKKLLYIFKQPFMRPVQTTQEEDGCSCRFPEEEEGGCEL

Binder | fold change of affinity (Human CD137 ECD) [fold] | further results
GPC3 ERY22-B (bispecific antibody, human IgG1, kappa, L234A L235A, N297A) heavy 1: DIVMTQSPLSLPVTPGEPASISCRSSQSLVHSNRNTYLHWYQQKPGQAPRLLIYKVSNRFSGVPDRFSGSGSGTDFTLKISRVEAEDVGVYYCSQNTHVPPTFGQGTKLEIKSSASTKGPSVFPLAPSSKSTSGGTAALGCLVKDYFPEPVTVSWNSGALTSGVHTFPAVLQSSGLYSLSSVVTVPSSSLGTQTYICNVNHKPSNTKVDKKVEPKSCDKTHTCPPCPAPEAAGGPSVFLFPPKPKDTLMISRTPEVTCVVVDVSHEDPEVKFNWYVDGVEVHNAKTKPREEQYASTYRVVSVLTVLHQDWLNGKEYKCKVSNKALPAPIEKTISKAKGQPREPQVCTLPPSRDELTKNQVSLWCLVKGFYPSDIAVEWESNGQPENNYKTTPPVLDSDGSFFLYSKLTVDKSRWQQGNVFSCSVMHEALHNHYTQKSLSLSPHHHHHHHH light 1: QVQLVQSGAEVKKPGASVKVSCKASGYTFTDYEMHWIRQPPGQGLEWIGAIDPKTGDTAYSQKFKGRVTLTADKSTSTAYMELSSLTSEDTAVYYCTRFYSYTYWGQGTLVTVSSASVAAPSVFIFPPSDEQLKSGTASVVCLLNNFYPREAKVQWKVDNALQSGNSQESVTEQDSKDSTYSLSSTLTLSKADYEKHKVYACEVTHQGLSSPVTKSFNRGEC heavy 2: QVQLQQWGAGLLKPSETLSLTCAVYGGSFSGYYWSWIRQSPEKGLEWIGEINHGGYVTYNPSLESRVTISVDTSKNQFSLKLSSVTAADTAVYYCARDYGPGNYDWYFDLWGRGTLVTVSSASTKGPSVFPLAPSSKSTSGGTAALGCLVKDYFPEPVTVSWNSGALTSGVHTFPAVLQSSGLYSLSSVVTVPSSSLGTQTYICNVNHKPSNTKVDKKVEPKSCDKTHTCPPCPAPEAAGGPSVFLFPPKPKDTLMISRTPEVTCVVVDVSHEDPEVKFNWYVDGVEVHNAKTKPREEQYASTYRVVSVLTVLHQDWLNGKEYKCKVSNKALPAPIEKTISKAKGQPREPQVYTLPPSRCELTKNQVSLSCAVKGFYPSDIAVEWESNGQPENNYKTTPPVLDSDGSFFLVSKLTVDKSRWQQGNVFSCSVMHEALHNHYTQKSLSLSP light 2: not shown | – | Agonistic activity compared to B, antibody 6 ug/mL [1]: 100%; Agonistic activity compared to B, antibody 30 ug/mL [1]: 100%; Agonistic activity compared to Ctrl, antibody 6 ug/mL [1]: 347%; Agonistic activity compared to Ctrl, antibody 30 ug/mL [1]: 380%; hIL-6 (pg/mL), antibody 6 ug/mL [1]: 4520 pg/mL; hIL-6 (pg/mL), antibody 30 ug/mL [1]: 4340 pg/mL
dBBDu183H V100cQ / dBBDu072L (antibody, name in Kabat numbering, V domains shown, as m1, one VH change) VH: QVQLVESGGGLVQPGRSLRLSCAASGFTFSNAWMHWVRQAPGKGLEWVAQIKDKGNAYAAYYAPSVKGRFTISRDDSKNSIYLQMNSLKTEDTAVYYCHYVHYASASTQLPAFGVDAWGQGTTVTVSS VL: DIVMTQSPLSLPVTPGEPASISCQASQELVHMNRNTYLHWYQQKPGQAPRLLIYKVSNRFPGVPDRFSGSGSGTDFTLKISRVEAEDVGVYYCAQGTSVPFTFGQGTKLEIK | 1.4 | –
dBBDu183H Y94D / dBBDu072L (antibody, name in Kabat numbering, V domains shown, as m1, one VH change) VH: QVQLVESGGGLVQPGRSLRLSCAASGFTFSNAWMHWVRQAPGKGLEWVAQIKDKGNAYAAYYAPSVKGRFTISRDDSKNSIYLQMNSLKTEDTAVYYCHDVHYASASTVLPAFGVDAWGQGTTVTVSS VL: DIVMTQSPLSLPVTPGEPASISCQASQELVHMNRNTYLHWYQQKPGQAPRLLIYKVSNRFPGVPDRFSGSGSGTDFTLKISRVEAEDVGVYYCAQGTSVPFTFGQGTKLEIK | 0.2 | –
dBBDu183H V100cS / dBBDu072L (antibody, name in Kabat numbering, V domains shown, as m1, one VH change) VH: QVQLVESGGGLVQPGRSLRLSCAASGFTFSNAWMHWVRQAPGKGLEWVAQIKDKGNAYAAYYAPSVKGRFTISRDDSKNSIYLQMNSLKTEDTAVYYCHYVHYASASTSLPAFGVDAWGQGTTVTVSS VL: DIVMTQSPLSLPVTPGEPASISCQASQELVHMNRNTYLHWYQQKPGQAPRLLIYKVSNRFPGVPDRFSGSGSGTDFTLKISRVEAEDVGVYYCAQGTSVPFTFGQGTKLEIK | 0.5 | –
dBBDu183H V100cT / dBBDu072L (antibody, name in Kabat numbering, V domains shown, as m1, one VH change) VH: QVQLVESGGGLVQPGRSLRLSCAASGFTFSNAWMHWVRQAPGKGLEWVAQIKDKGNAYAAYYAPSVKGRFTISRDDSKNSIYLQMNSLKTEDTAVYYCHYVHYASASTTLPAFGVDAWGQGTTVTVSS VL: DIVMTQSPLSLPVTPGEPASISCQASQELVHMNRNTYLHWYQQKPGQAPRLLIYKVSNRFPGVPDRFSGSGSGTDFTLKISRVEAEDVGVYYCAQGTSVPFTFGQGTKLEIK | 0.5 | –
dBBDu183H V100cW / dBBDu072L (antibody, name in Kabat numbering, V domains shown, as m1, one VH change) VH: QVQLVESGGGLVQPGRSLRLSCAASGFTFSNAWMHWVRQAPGKGLEWVAQIKDKGNAYAAYYAPSVKGRFTISRDDSKNSIYLQMNSLKTEDTAVYYCHYVHYASASTWLPAFGVDAWGQGTTVTVSS VL: DIVMTQSPLSLPVTPGEPASISCQASQELVHMNRNTYLHWYQQKPGQAPRLLIYKVSNRFPGVPDRFSGSGSGTDFTLKISRVEAEDVGVYYCAQGTSVPFTFGQGTKLEIK | 0.6 | –
dBBDu183H V100iT / dBBDu072L (antibody, name in Kabat numbering, V domains shown, as m1, one VH change) VH: QVQLVESGGGLVQPGRSLRLSCAASGFTFSNAWMHWVRQAPGKGLEWVAQIKDKGNAYAAYYAPSVKGRFTISRDDSKNSIYLQMNSLKTEDTAVYYCHYVHYASASTVLPAFGTDAWGQGTTVTVSS VL: DIVMTQSPLSLPVTPGEPASISCQASQELVHMNRNTYLHWYQQKPGQAPRLLIYKVSNRFPGVPDRFSGSGSGTDFTLKISRVEAEDVGVYYCAQGTSVPFTFGQGTKLEIK | 0.2 | –
dBBDu183H V100cY / dBBDu072L (antibody, name in Kabat numbering, V domains shown, as m1, one VH change) VH: QVQLVESGGGLVQPGRSLRLSCAASGFTFSNAWMHWVRQAPGKGLEWVAQIKDKGNAYAAYYAPSVKGRFTISRDDSKNSIYLQMNSLKTEDTAVYYCHYVHYASASTYLPAFGVDAWGQGTTVTVSS VL: DIVMTQSPLSLPVTPGEPASISCQASQELVHMNRNTYLHWYQQKPGQAPRLLIYKVSNRFPGVPDRFSGSGSGTDFTLKISRVEAEDVGVYYCAQGTSVPFTFGQGTKLEIK | 0.6 | –
dBBDu183H V100cR / dBBDu072L (antibody, name in Kabat numbering, V domains shown, as m1, one VH change) VH: QVQLVESGGGLVQPGRSLRLSCAASGFTFSNAWMHWVRQAPGKGLEWVAQIKDKGNAYAAYYAPSVKGRFTISRDDSKNSIYLQMNSLKTEDTAVYYCHYVHYASASTRLPAFGVDAWGQGTTVTVSS VL: DIVMTQSPLSLPVTPGEPASISCQASQELVHMNRNTYLHWYQQKPGQAPRLLIYKVSNRFPGVPDRFSGSGSGTDFTLKISRVEAEDVGVYYCAQGTSVPFTFGQGTKLEIK | 0.7 | –

Continued, in another order:

fold change of affinity (Human CD137 ECD) [fold] | Binder | further results
0.1 | dBBDu183H Y94N / dBBDu072L (antibody, name in Kabat numbering, V domains shown, as m1, one VH change) VH: QVQLVESGGGLVQPGRSLRLSCAASGFTFSNAWMHWVRQAPGKGLEWVAQIKDKGNAYAAYYAPSVKGRFTISRDDSKNSIYLQMNSLKTEDTAVYYCHNVHYASASTVLPAFGVDAWGQGTTVTVSS VL: DIVMTQSPLSLPVTPGEPASISCQASQELVHMNRNTYLHWYQQKPGQAPRLLIYKVSNRFPGVPDRFSGSGSGTDFTLKISRVEAEDVGVYYCAQGTSVPFTFGQGTKLEIK | –
0.8 | dBBDu183H Y97W / dBBDu072L (antibody, name in Kabat numbering, V domains shown, as m1, one VH change) VH: QVQLVESGGGLVQPGRSLRLSCAASGFTFSNAWMHWVRQAPGKGLEWVAQIKDKGNAYAAYYAPSVKGRFTISRDDSKNSIYLQMNSLKTEDTAVYYCHYVHWASASTVLPAFGVDAWGQGTTVTVSS VL: DIVMTQSPLSLPVTPGEPASISCQASQELVHMNRNTYLHWYQQKPGQAPRLLIYKVSNRFPGVPDRFSGSGSGTDFTLKISRVEAEDVGVYYCAQGTSVPFTFGQGTKLEIK | –
0.3 | dBBDu183H Y94Q / dBBDu072L (antibody, name in Kabat numbering, V domains shown, as m1, one VH change) VH: QVQLVESGGGLVQPGRSLRLSCAASGFTFSNAWMHWVRQAPGKGLEWVAQIKDKGNAYAAYYAPSVKGRFTISRDDSKNSIYLQMNSLKTEDTAVYYCHQVHYASASTVLPAFGVDAWGQGTTVTVSS VL: DIVMTQSPLSLPVTPGEPASISCQASQELVHMNRNTYLHWYQQKPGQAPRLLIYKVSNRFPGVPDRFSGSGSGTDFTLKISRVEAEDVGVYYCAQGTSVPFTFGQGTKLEIK | –
1.8 | dBBDu183H Y97F / dBBDu072L (antibody, name in Kabat numbering, V domains shown, as m1, one VH change) VH: QVQLVESGGGLVQPGRSLRLSCAASGFTFSNAWMHWVRQAPGKGLEWVAQIKDKGNAYAAYYAPSVKGRFTISRDDSKNSIYLQMNSLKTEDTAVYYCHYVHFASASTVLPAFGVDAWGQGTTVTVSS VL: DIVMTQSPLSLPVTPGEPASISCQASQELVHMNRNTYLHWYQQKPGQAPRLLIYKVSNRFPGVPDRFSGSGSGTDFTLKISRVEAEDVGVYYCAQGTSVPFTFGQGTKLEIK | –
1.8 | dBBDu183H Y94F / dBBDu072L (antibody, name in Kabat numbering, V domains shown, as m1, one VH change) VH: QVQLVESGGGLVQPGRSLRLSCAASGFTFSNAWMHWVRQAPGKGLEWVAQIKDKGNAYAAYYAPSVKGRFTISRDDSKNSIYLQMNSLKTEDTAVYYCHFVHYASASTVLPAFGVDAWGQGTTVTVSS VL: DIVMTQSPLSLPVTPGEPASISCQASQELVHMNRNTYLHWYQQKPGQAPRLLIYKVSNRFPGVPDRFSGSGSGTDFTLKISRVEAEDVGVYYCAQGTSVPFTFGQGTKLEIK | –
1.4 | dBBDu183H Y94S / dBBDu072L (antibody, name in Kabat numbering, V domains shown, as m1, one VH change) VH: QVQLVESGGGLVQPGRSLRLSCAASGFTFSNAWMHWVRQAPGKGLEWVAQIKDKGNAYAAYYAPSVKGRFTISRDDSKNSIYLQMNSLKTEDTAVYYCHSVHYASASTVLPAFGVDAWGQGTTVTVSS VL: DIVMTQSPLSLPVTPGEPASISCQASQELVHMNRNTYLHWYQQKPGQAPRLLIYKVSNRFPGVPDRFSGSGSGTDFTLKISRVEAEDVGVYYCAQGTSVPFTFGQGTKLEIK | –
0.6 | dBBDu183H Y94T / dBBDu072L (antibody, name in Kabat numbering, V domains shown, as m1, one VH change) VH: QVQLVESGGGLVQPGRSLRLSCAASGFTFSNAWMHWVRQAPGKGLEWVAQIKDKGNAYAAYYAPSVKGRFTISRDDSKNSIYLQMNSLKTEDTAVYYCHTVHYASASTVLPAFGVDAWGQGTTVTVSS VL: DIVMTQSPLSLPVTPGEPASISCQASQELVHMNRNTYLHWYQQKPGQAPRLLIYKVSNRFPGVPDRFSGSGSGTDFTLKISRVEAEDVGVYYCAQGTSVPFTFGQGTKLEIK | –
